Laboratory results: article PMC6131520

Target: 3D8 IgG-N434D mutant (mouse | human)
Sequence (heavy, as listed by the source, chain 1 of 2): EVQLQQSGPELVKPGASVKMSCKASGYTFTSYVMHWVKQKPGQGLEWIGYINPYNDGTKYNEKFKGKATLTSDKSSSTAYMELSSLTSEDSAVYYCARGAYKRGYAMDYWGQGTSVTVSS
Sequence (light, as listed by the source, chain 2 of 2): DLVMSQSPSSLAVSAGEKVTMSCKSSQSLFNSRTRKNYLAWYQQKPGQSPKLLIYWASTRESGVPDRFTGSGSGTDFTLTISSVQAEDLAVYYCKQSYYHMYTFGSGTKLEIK

tripartite motif-containing 21 (TRIM21) (from UniProt P19474 1-475) (natural protein)
secretion of IL-8 and TNF-α by THP-1 cells treated with 5 μM IgG for 6 h (ELISA), against cells treated with wt 3D8 IgG: 40 % higher
